The supplement of paper PMC10724198
± gives the standard deviation of the averaged measurements.

Tests used:
Saccharomyces cerevisiae [1] = test: protein stability index of tFT-peptide fusion (C-terminal peptide) (PSI (0-1 scale)); higher = more stable (slower turnover)
Description: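 MPS profiling in S. cerevisiae of the tFT-X12 degron library: putative degron peptides plus stable controls, 12 aa, fused to the C-terminus of a sfGFP-mCherry timer. Cells are FACS-sorted into 8 mCherry/sfGFP bins and deep-sequenced. PSI runs from 0 (unstable) to 1 (stable). Backgrounds are wild type, das1Δ and doa10Δ at 30 °C, and wild type, das1Δ, cdc34-1 and cdc53-1 at 37 °C; 2-3 technical replicates each.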

Saccharomyces cerevisiae [2] = test: as above; details: genetic background: wild type; temperature: 30 C
[3] = genetic background: cdc34-1, temperature: 37 C
[4] = genetic background: cdc53-1, temperature: 37 C
[5] = genetic background: das1 deletion, temperature: 30 C
[6] = genetic background: das1 deletion, temperature: 37 C
[7] = genetic background: doa10 deletion, temperature: 30 C
[8] = genetic background: wild type, temperature: 30 C
[9] = genetic background: wild type, temperature: 37 C
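Note: PSI is a weighted mean of sequencing reads over stability bins, variants kept only with over 10 reads, mCherry proximal and sfGFP distal, peptide attached via GGGS linker.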

Sequence | protein stability index (Saccharomyces cerevisiae [1]; [3]) | protein stability index (Saccharomyces cerevisiae [1]; [4]) | protein stability index (Saccharomyces cerevisiae [1]; [5]) | protein stability index (Saccharomyces cerevisiae [1]; [6]) | protein stability index (Saccharomyces cerevisiae [1]; [7]) | protein stability index (Saccharomyces cerevisiae [1]; [8]) | protein stability index (Saccharomyces cerevisiae [1]; [9]) | protein stability index (Saccharomyces cerevisiae [2])
RHVFLRIKVLNL | 0.564 ± 0.11 | 0.644 ± 0.051 | 0.52 ± 0.016 | 0.5596 ± 0.0049 | 0.344 ± 0.0053 | 0.397 ± 0.015 | 0.5197 ± 0.0025 | 0.489 ± 0.085
YSALHNPPQPVT | 0.665 ± 0.032 | 0.725 ± 0.014 | 0.6556 ± 0.0065 | 0.7216 ± 0.0049 | 0.658 ± 0.014 | 0.658 ± 0.011 | 0.6971 ± 0.0062 | 0.736 ± 0.02
FASVFCVVTGYV | 0.551 ± 0.037 | 0.611 ± 0.027 | 0.423 ± 0.018 | 0.597 ± 0.0062 | 0.406 ± 0.01 | 0.429 ± 0.013 | 0.58585 ± 7.1e-07 | 0.48 ± 0.072
SLVIRLNIRLIL | 0.462 ± 0.021 | 0.435 ± 0.0077 | 0.423 ± 0.03 | 0.414 ± 0.034 | 0.329 ± 0.0061 | 0.325 ± 0.018 | 0.361 ± 0.019 | 0.394 ± 0.011
CCGWSGCVSGVL | 0.698 ± 0.029 | 0.7602 ± 0.0038 | 0.638 ± 0.014 | 0.7418 ± 0.0014 | 0.651 ± 0.012 | 0.657 ± 0.02 | 0.74 ± 0.024 | 0.717 ± 0.018
FYACRLWLVSVR | 0.161 ± 0.027 | 0.196 ± 0.011 | 0.191 ± 0.023 | 0.313 ± 0.0039 | 0.158 ± 0.007 | 0.184 ± 0.021 | 0.269 ± 0.0029 | 0.29 ± 0.0033
PSRRLRHFATSP | 0.623 ± 0.058 | 0.68 ± 0.021 | 0.736 ± 0.037 | 0.6646 ± 0.0047 | 0.747 ± 0.038 | 0.703 ± 0.0095 | 0.6412 ± 0.00013 | 0.741 ± 0.023
PGHICVPVLGTA | 0.453 ± 0.021 | 0.467 ± 0.0061 | 0.348 ± 0.037 | 0.513 ± 0.0077 | 0.3072 ± 0.003 | 0.357 ± 0.027 | 0.517 ± 0.036 | 0.447 ± 0.027
LSPLPSPLILVV | 0.116 ± 0.08 | 0.16 ± 0.021 | 0.201 ± 0.0086 | 0.228 ± 0.0065 | 0.14761 ± 5.3e-05 | 0.191 ± 0.034 | 0.182 ± 0.022 | 0.284 ± 0.014
LVGLESCGERAG | 0.655 ± 0.00071 | 0.7436 ± 0.0018 | 0.644 ± 0.025 | 0.7308 ± 0.0011 | 0.643 ± 0.027 | 0.654 ± 0.0009 | 0.72 ± 0.024 | 0.69 ± 0.035
VIQKKKKNKITS | 0.617 ± 0.004 | 0.729 ± 0.014 | 0.65 ± 0.022 | 0.7265 ± 0.0018 | 0.197 ± 0.011 | 0.238 ± 0.013 | 0.408 ± 0.016 | 0.346 ± 0.033
ILFCVRIGLFWT | 0.0461 ± 0.0067 | 0.135 ± 0.0014 | 0.137 ± 0.03 | 0.24 ± 0.0035 | 0.146 ± 0.019 | 0.128 ± 0.03 | 0.179 ± 0.014 | 0.219 ± 0.051
VLFSVWFFLVLV | 0.0557 ± 0.017 | 0.0354 ± 0.0069 | 0.122 ± 0.032 | 0.134 ± 0.0075 | 0.241 ± 0.015 | 0.103 ± 0.035 | 0.127 ± 0.04 | 0.117 ± 0.017
VMIFYVLGRVWD | 0.428 ± 0.0048 | 0.5209 ± 0.0028 | 0.293 ± 0.056 | 0.594 ± 0.025 | 0.27 ± 0.0079 | 0.314 ± 0.033 | 0.581 ± 0.082 | 0.455 ± 0.0091
RPRVAGLMTLVS | 0.698 ± 0.013 | 0.686 ± 0.052 | 0.543 ± 0.018 | 0.707 ± 0.025 | 0.459 ± 0.03 | 0.459 ± 0.032 | 0.672 ± 0.0094 | 0.5 ± 0.0055
PYLSAPLVATLS | 0.378 ± 0.014 | 0.424 ± 0.025 | 0.274 ± 0.057 | 0.474 ± 0.0082 | 0.234 ± 0.012 | 0.28 ± 0.045 | 0.426 ± 0.0049 | 0.3853 ± 0.0035
LWFGAWWLGAVG | 0.318 ± 0.031 | 0.361 ± 0.0043 | 0.411 ± 0.0063 | 0.336 ± 0.0087 | 0.4166 ± 0.0011 | 0.421 ± 0.0065 | 0.32 ± 0.013 | 0.457 ± 0.0053
FDWLFFFVNFVV | 0.407 ± 0.063 | 0.511 ± 0.033 | 0.475 ± 0.018 | 0.546 ± 0.029 | 0.174 ± 0.0022 | 0.163 ± 0.019 | 0.24 ± 0.0068 | 0.2459 ± 0.00064
CFGIFWLFARLK | 0.281 ± 0.07 | 0.32 ± 0.03 | 0.289 ± 0.022 | 0.422 ± 0.0073 | 0.343 ± 0.018 | 0.274 ± 0.035 | 0.389 ± 0.035 | 0.345 ± 0.059
